Source: the supplement of paper PMC10567573

B1: POLD4 (parent)
chain: ITDSYPVVKRREGPAGHSKGELAP

Variants of: B1
Test: protein stability index of a GFP-peptide fusion (GPS, HEK-293T) (PSI 1-6); higher = more stable
Conditions: c terminus: a fixed tail appended
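Further: lentivirally expressed fusions sorted by FACS into six bins by GFP to DsRed ratio, PSI derived from sequencing read proportions per bin multiplied by bin number.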

First: ITDSYPVVKRREGCAGHSKGELAP [P14C]
Second: ITDSYPVVKRREGAAGHSKGELAP [P14A]
The protein stability index of the first is lower: 3.14 for the first, 3.82 for the second.

Compared with ITDSYPVVKRRTGPAGHSKGELAP [E12T], ITDSYPVVKRRGGPAGHSKGELAP [E12G] is lower in protein stability index: 3.41 for the first, 3.01 for the second.

Going from ITDSYPVVKRRFGPAGHSKGELAP [E12F] to ITDSYPVVKRRMGPAGHSKGELAP [E12M], the protein stability index rises from 1.86 to 2.87.

Going from ITDSYPVVKRRNGPAGHSKGELAP [E12N] to ITDSYPVVKRRDGPAGHSKGELAP [E12D], the protein stability index rises from 2.85 to 3.08.

Compared with ITDSYPVVKRRVGPAGHSKGELAP [E12V], ITDSYPVVKRRQGPAGHSKGELAP [E12Q] is higher in protein stability index: 2.72 for the first, 4.16 for the second.

First: ITDSYPVVKRRCGPAGHSKGELAP [E12C]
Second: ITDSYPVVKRRWGPAGHSKGELAP [E12W]
The protein stability index of the first is lower: 2.1 for the first, 2.88 for the second.

First: ITDSYPVVKRRIGPAGHSKGELAP [E12I]
Second: ITDSYPVVKRRHGPAGHSKGELAP [E12H]
The protein stability index of the first is higher: 3.53 for the first, 2.72 for the second.

Compared with ITDSYPVVKRRLGPAGHSKGELAP [E12L], ITDSYPVVKRRPGPAGHSKGELAP [E12P] is higher in protein stability index: 2.87 for the first, 3.26 for the second.

Going from ITDSYPVVKRRKGPAGHSKGELAP [E12K] to ITDSYPVVKRRAGPAGHSKGELAP [E12A], the protein stability index falls from 3.11 to 2.52.

Compared with ITDSYPVVKRRRGPAGHSKGELAP [E12R], ITDSYPVVKRRYGPAGHSKGELAP [E12Y] is lower in protein stability index: 2.65 for the first, 2.48 for the second.

Going from ITDSYPVVKRRSGPAGHSKGELAP [E12S] to ITDEYPVVKRREGPAGHSKGELAP [S4E], the protein stability index rises from 2.69 to 4.58.

Going from ITDRYPVVKRREGPAGHSKGELAP [S4R] to ITDDYPVVKRREGPAGHSKGELAP [S4D], the protein stability index rises from 3.87 to 5.06.

First: ITDNYPVVKRREGPAGHSKGELAP [S4N]
Second: ITDHYPVVKRREGPAGHSKGELAP [S4H]
The protein stability index of the first is higher: 4.16 for the first, 2.67 for the second.

Compared with ITDPYPVVKRREGPAGHSKGELAP [S4P], ITDQYPVVKRREGPAGHSKGELAP [S4Q] is lower in protein stability index: 4.58 for the first, 3.81 for the second.

Compared with ITDTYPVVKRREGPAGHSKGELAP [S4T], ITDIYPVVKRREGPAGHSKGELAP [S4I] is higher in protein stability index: 2.56 for the first, 3.51 for the second.

Going from ITDYYPVVKRREGPAGHSKGELAP [S4Y] to ISDSYPVVKRREGPAGHSKGELAP [T2S], the protein stability index rises from 2.57 to 3.69.

Compared with IWDSYPVVKRREGPAGHSKGELAP [T2W], IGDSYPVVKRREGPAGHSKGELAP [T2G] is higher in protein stability index: 3.37 for the first, 3.61 for the second.

Going from IPDSYPVVKRREGPAGHSKGELAP [T2P] to IMDSYPVVKRREGPAGHSKGELAP [T2M], the protein stability index rises from 3.71 to 3.78.

Going from IHDSYPVVKRREGPAGHSKGELAP [T2H] to IIDSYPVVKRREGPAGHSKGELAP [T2I], the protein stability index rises from 4.41 to 4.58.

Compared with IYDSYPVVKRREGPAGHSKGELAP [T2Y], IVDSYPVVKRREGPAGHSKGELAP [T2V] is lower in protein stability index: 4.27 for the first, 3.36 for the second.

First: ILDSYPVVKRREGPAGHSKGELAP [T2L]
Second: ITDSYIVVKRREGPAGHSKGELAP [P6I]
The protein stability index of the first is higher: 4.98 for the first, 4.17 for the second.

First: ITDSYAVVKRREGPAGHSKGELAP [P6A]
Second: ITDSYHVVKRREGPAGHSKGELAP [P6H]
The protein stability index of the first is lower: 3.48 for the first, 5 for the second.

First: ITDSYNVVKRREGPAGHSKGELAP [P6N]
Second: ITDSYFVVKRREGPAGHSKGELAP [P6F]
The protein stability index of the first is higher: 4.51 for the first, 3.52 for the second.

First: ITDSYEVVKRREGPAGHSKGELAP [P6E]
Second: ITDSYDVVKRREGPAGHSKGELAP [P6D]
The protein stability index of the first is lower: 4.33 for the first, 5.12 for the second.

Compared with ITDSYRVVKRREGPAGHSKGELAP [P6R], ITDSYGVVKRREGPAGHSKGELAP [P6G] is higher in protein stability index: 2.94 for the first, 4.67 for the second.

Compared with ITDSYWVVKRREGPAGHSKGELAP [P6W], ITDSYSVVKRREGPAGHSKGELAP [P6S] is higher in protein stability index: 3.4 for the first, 3.53 for the second.

Going from ITDSYLVVKRREGPAGHSKGELAP [P6L] to ITDSYTVVKRREGPAGHSKGELAP [P6T], the protein stability index rises from 3.75 to 4.55.

Compared with ITDSYPVVGRREGPAGHSKGELAP [K9G], ITDSYPVVARREGPAGHSKGELAP [K9A] is lower in protein stability index: 5.01 for the first, 4.65 for the second.

First: ITDSYPVVWRREGPAGHSKGELAP [K9W]
Second: ITDSYPVVIRREGPAGHSKGELAP [K9I]
The protein stability index of the first is higher: 4.14 for the first, 3.8 for the second.

First: ITDSYPVVCRREGPAGHSKGELAP [K9C]
Second: ITDSYPVVYRREGPAGHSKGELAP [K9Y]
The protein stability index of the first is lower: 3.95 for the first, 4.15 for the second.

First: ITDSYPVVFRREGPAGHSKGELAP [K9F]
Second: ITDSYPVVMRREGPAGHSKGELAP [K9M]
The protein stability index of the first is lower: 3.1 for the first, 4.06 for the second.

First: ITDSYPVVSRREGPAGHSKGELAP [K9S]
Second: ITDSYPVVPRREGPAGHSKGELAP [K9P]
The protein stability index of the first is higher: 4.41 for the first, 4.26 for the second.

Going from ITDSYPVVDRREGPAGHSKGELAP [K9D] to ITDSYPVVHRREGPAGHSKGELAP [K9H], the protein stability index falls from 4.63 to 2.72.

First: ITDSYPVVRRREGPAGHSKGELAP [K9R]
Second: ITDSYPVVVRREGPAGHSKGELAP [K9V]
The protein stability index of the first is lower: 3.25 for the first, 4.06 for the second.

Compared with ITDSYPVVTRREGPAGHSKGELAP [K9T], ITDSYPVVERREGPAGHSKGELAP [K9E] is higher in protein stability index: 4.71 for the first, 4.83 for the second.

First: ITDSYPVVKRTEGPAGHSKGELAP [R11T]
Second: ITDSYPVVKRHEGPAGHSKGELAP [R11H]
The protein stability index of the first is higher: 3.33 for the first, 3.28 for the second.

Compared with ITDSYPVVKRGEGPAGHSKGELAP [R11G], ITDSYPVVKRMEGPAGHSKGELAP [R11M] is lower in protein stability index: 3.79 for the first, 2.87 for the second.

First: ITDSYPVVKRNEGPAGHSKGELAP [R11N]
Second: ITDSYPVVKRIEGPAGHSKGELAP [R11I]
The protein stability index of the first is lower: 3.28 for the first, 3.76 for the second.

Compared with ITDSYPVVKRWEGPAGHSKGELAP [R11W], ITDSYPVVKRDEGPAGHSKGELAP [R11D] is higher in protein stability index: 3.46 for the first, 4.79 for the second.

First: ITDSYPVVKRSEGPAGHSKGELAP [R11S]
Second: ITDSYPVVKRCEGPAGHSKGELAP [R11C]
The protein stability index of the first is lower: 3.23 for the first, 3.68 for the second.

Compared with ITDSYPVVKRLEGPAGHSKGELAP [R11L], ITDSYPVVKRQEGPAGHSKGELAP [R11Q] is higher in protein stability index: 2.98 for the first, 4.37 for the second.

Compared with ITDSYPVVKRYEGPAGHSKGELAP [R11Y], ITDSYPVVKRVEGPAGHSKGELAP [R11V] is lower in protein stability index: 3.36 for the first, 2.69 for the second.

Going from ITDSYPVVKREEGPAGHSKGELAP [R11E] to ITDSYPVVKRKEGPAGHSKGELAP [R11K], the protein stability index falls from 5.14 to 3.54.

Going from ITDSYPVVKRPEGPAGHSKGELAP [R11P] to ITDSYPVVKRFEGPAGHSKGELAP [R11F], the protein stability index falls from 3.28 to 2.43.

Going from ITDSYPVVKRAEGPAGHSKGELAP [R11A] to ITNSYPVVKRREGPAGHSKGELAP [D3N], the protein stability index falls from 3.23 to 2.68.

First: ITLSYPVVKRREGPAGHSKGELAP [D3L]
Second: ITMSYPVVKRREGPAGHSKGELAP [D3M]
The protein stability index of the first is lower: 2.46 for the first, 3.2 for the second.

Compared with ITISYPVVKRREGPAGHSKGELAP [D3I], ITYSYPVVKRREGPAGHSKGELAP [D3Y] is higher in protein stability index: 1.09 for the first, 2.74 for the second.
